B1: J3 nanobody (VHH)
VHH: EVQLVESGGGLVQAGGFLRLSCELRGSIFNQYAMAWFRQAPGKEREFVAGMGAVPHYGEFVKGRFTISRDNAKSTVYLQMSSLKPEDTAIYFCARSKSTYISYNSNGYDYWGRGTQVTVSS
B2: CAP256V2LS (antibody, V domains shown)
VH: QVQLVESGGGVVQPGTSLRLSCAASQFRFDGYGMHWVRQAPGKGLEWVASISHDGIKKYHAEKVWGRFTISRDNSKNTLYLQMNSLRPEDTALYYCAKDLREDECEEWWSDYYDFGAQLPCAKSRGGLVGIADNWGQGTMVTVSS
VL: QSVLTQPPSVSAAPGQKVTISCSGNTSNIGNNFVSWYQQRPGRAPQLLIYETDKRPSGIPDRFSASKSGTSGTLAITGLQTGDEADYYCATWAASLSSARVFGTGTQVIVLG

How the values were obtained:
[1] = target: BG505 DS-SOSIP.664 Env trimer (HIV-1); experiment: ITC, 37 C, PBS pH 7.4, nanobody titrated into trimer
[2] = target: BG505 DS-SOSIP.664 Env trimer (HIV-1); experiment: ITC, 37 C, PBS pH 7.4, antibody titrated into trimer
[3] = target: CAP256 soluble Env trimer (clade C), stabilized in the prefusion-closed conformation (HIV-1); experiment: ELISA, lectin-captured trimer, expression supernatant, single point, OD 450 nm
[4] = target: JRFL soluble Env trimer (clade B), stabilized in the prefusion-closed conformation (HIV-1); experiment: as above
[5] = target: K169V variant of CAP256 soluble Env trimer (HIV-1); experiment: as above
[6] = target: 426C-WITO soluble Env trimer (clade B), stabilized in the prefusion-closed conformation (HIV-1); experiment: ELISA, lectin-captured trimer, expression supernatant, single point, OD 450 nm, column 426c-WITO-degly3

Binder	-TΔS [1] [kcal/mol]	Kd [1] [nM]	N (stoichiometry) (Antigen Binding Sites per Trimer) [1]	ΔG [1] [kcal/mol]	ΔH [1] [kcal/mol]	-TΔS [2] [kcal/mol]	Kd [2] [nM]	N (stoichiometry) (Antigen Binding Sites per Trimer) [2]	ΔG [2] [kcal/mol]	ΔH [2] [kcal/mol]	ELISA binding [3]	ELISA binding [4]	ELISA binding [5]	ELISA binding [6]
B1	1.4	92	3.1	-10	-11.4									
B2						15	34	1	-10.6	-25.6	2.16	0.361	2.42	0.382

Reference: US20250197482A1
